According to patent US20130225506A1 (POLYPHOR, published 2013):
Values belong to the binder of their own block, whether it stands above or below them. Square brackets hold non-standard residues; d marks the D form. Primed or numbered codes have the meaning given here. Phe(4-CF3) = N[C@@H](Cc1ccc(C(F)(F)F)cc1)C(=O)O; dPro(cis-4-NH2) = N[C@H]1CN[C@@H](C(=O)O)C1; Pro(3S-OH) = O=C(O)[C@H]1NCC[C@@H]1O; hArg = N=C(N)NCCCC[C@H](N)C(=O)O; Tic = O=C(O)[C@@H]1Cc2ccccc2CN1; dTic = O=C(O)[C@H]1Cc2ccccc2CN1; aThr = C[C@H](O)[C@H](N)C(=O)O; Orn(A56) = not defined here; Orn(Ar2) = not defined here; Orn(Ar4) = not defined here; Orn(Ar7) = not defined here; hSer = N[C@@H](CCO)C(=O)O; Orn = NCCC[C@H](N)C(=O)O; dPip′ = not defined here; A56 = not defined here; Ar7 = not defined here; Tiq = not defined here

Biological target: chemokine receptor CXCR7 (UniProt P25106 1-362, limits assumed)
Assay: cell-based or functional assay

Sequence of chemokine receptor CXCR7 (P25106 whole entry): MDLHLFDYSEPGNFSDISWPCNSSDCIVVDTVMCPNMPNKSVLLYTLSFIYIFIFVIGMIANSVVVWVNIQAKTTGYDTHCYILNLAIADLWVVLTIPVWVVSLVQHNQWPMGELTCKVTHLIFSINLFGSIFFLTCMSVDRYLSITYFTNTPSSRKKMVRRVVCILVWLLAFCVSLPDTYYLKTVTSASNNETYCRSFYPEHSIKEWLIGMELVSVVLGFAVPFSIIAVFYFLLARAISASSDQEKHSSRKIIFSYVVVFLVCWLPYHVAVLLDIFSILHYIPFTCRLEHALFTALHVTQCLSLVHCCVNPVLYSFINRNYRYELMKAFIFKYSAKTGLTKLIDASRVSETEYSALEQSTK

β-Arrestin EC50: 453 nM
Binder: cyclo(I[dR][Orn(Ar2)]W[dP]T) (reading uncertain; also: printed as cyclo(-Ile-^DArg-Orn(Ar2)-Trp-^DPro-Thr-)) [cyclo(-Ile-^DArg-Orn(Ar2)-Trp-^DPro-Thr-)]

β-Arrestin EC50: 3.2 nM
Binder: cyclo(I[dR][Orn(A56)]W[dP]T) (reading uncertain; also: printed as cyclo(-Ile-^DArg-Orn(A56)-Trp-^DPro-Thr-)) [cyclo(-Ile-^DArg-Orn(A56)-Trp-^DPro-Thr-)]

β-Arrestin EC50: 336 nM
Binder: cyclo(I[dR][Orn(Ar7)]W[dP]T) (reading uncertain; also: printed as cyclo(-Ile-^DArg-Orn(Ar7)-Trp-^DPro-Thr-)) [cyclo(-Ile-^DArg-Orn(Ar7)-Trp-^DPro-Thr-)]

β-Arrestin EC50: 4.6 nM
Binder: cyclo(I[dR][Orn(Ar4)]W[dP]T) (reading uncertain; also: printed as cyclo(-Ile-^DArg-Orn(Ar4)-Trp-^DPro-Thr-)) [cyclo(-Ile-^DArg-Orn(Ar4)-Trp-^DPro-Thr-)]

β-Arrestin EC50: 209 nM
B5: cyclo(-Orn(Ar2)-^DPhe-Trp-Arg-^DPro((4R)NH2)-Tic-) (peptide)
peptide: cyclo([Orn(Ar2)][dF]WR[dPro(cis-4-NH2)][Tic])
modifications: reading uncertain; also: printed as cyclo(-Orn(Ar2)-^DPhe-Trp-Arg-^DPro((4R)NH2)-Tic-)

β-Arrestin EC50: 46.9 nM
B7: cyclo(-Trp-^DPhe-Trp-Orn(A56)-^DPro((4R)NH2)-Tiq-) (peptide)
peptide: cyclo(W[dF]W[Orn](A56)[dPro(cis-4-NH2)][Tiq])
modifications: reading uncertain; also: printed as cyclo(-Trp-^DPhe-Trp-Orn(A56)-^DPro((4R)NH2)-Tiq-)

β-Arrestin EC50: 181 nM
B9: cyclo(-Orn(A56)-^DPhe-Trp-Arg-^DPro((4R)NH2)-Tic-) (peptide)
peptide: cyclo([Orn(A56)][dF]WR[dPro(cis-4-NH2)][Tic])
modifications: reading uncertain; also: printed as cyclo(-Orn(A56)-^DPhe-Trp-Arg-^DPro((4R)NH2)-Tic-)

β-Arrestin EC50: 33.4 nM
B10: cyclo(-Trp-^DPhe-Trp-Orn(A56)-^DPro((4R)NH2)-Tic-) (peptide)
peptide: cyclo(W[dF]W[Orn](A56)[dPro(cis-4-NH2)][Tic])
modifications: reading uncertain; also: printed as cyclo(-Trp-^DPhe-Trp-Orn(A56)-^DPro((4R)NH2)-Tic-)

β-Arrestin EC50: 347 nM
B11: cyclo(-Ile-^DArg-Arg-Trp-^DPro-hSer-) (peptide)
peptide: cyclo(I[dR]RW[dP][hSer])
SMILES: CC[C@H](C)[C@@H]1NC(=O)[C@H](CCO)NC(=O)[C@H]2CCCN2C(=O)[C@H](Cc2c[nH]c3ccccc23)NC(=O)[C@H](CCCNC(=N)N)NC(=O)[C@@H](CCCNC(=N)N)NC1=O

β-Arrestin EC50: 14 nM
B12: cyclo(-Trp-^DPhe-Trp-Orn(A56)-^DPip-Pro((3S)OH)-) (peptide)
peptide: cyclo(W[dF]W[Orn](A56)[dPip′][Pro(3S-OH)])
modifications: reading uncertain; also: printed as cyclo(-Trp-^DPhe-Trp-Orn(A56)-^DPip-Pro((3S)OH)-)

Further lines, the binder ahead of its results:

B1: cyclo(-Ile-^DArg-hArg-Trp-^DPro-Thr-) (peptide)
peptide: cyclo(I[dR][hArg]W[dP]T)
SMILES: CC[C@H](C)[C@@H]1NC(=O)[C@H]([C@@H](C)O)NC(=O)[C@H]2CCCN2C(=O)[C@H](Cc2c[nH]c3ccccc23)NC(=O)[C@H](CCCCNC(=N)N)NC(=O)[C@@H](CCCNC(=N)N)NC1=O
β-Arrestin EC50: 11 nM

B2: cyclo(-Ile-^DArg-Arg-Trp-^DPro-alloThr-) (peptide)
peptide: cyclo(I[dR]RW[dP][aThr])
SMILES: CC[C@H](C)[C@@H]1NC(=O)[C@H]([C@H](C)O)NC(=O)[C@H]2CCCN2C(=O)[C@H](Cc2c[nH]c3ccccc23)NC(=O)[C@H](CCCNC(=N)N)NC(=O)[C@@H](CCCNC(=N)N)NC1=O
β-Arrestin EC50: 292 nM

Binder: cyclo([Ala(1Pyraz)][dF]WR[dPro(cis-4-NH2)][Tic]) [cyclo(-Ala(1Pyraz)-^DPhe-Trp-Arg-^DPro((4R)NH2)-Tic-)]
β-Arrestin EC50: 29.9 nM

B3: cyclo(-Ile-^DArg-Arg-Phe(4CF3)-^DPro-Thr-) (peptide)
peptide: cyclo(I[dR]R[Phe(4-CF3)][dP]T)
SMILES: CC[C@H](C)[C@@H]1NC(=O)[C@H]([C@@H](C)O)NC(=O)[C@H]2CCCN2C(=O)[C@H](Cc2ccc(C(F)(F)F)cc2)NC(=O)[C@H](CCCNC(=N)N)NC(=O)[C@@H](CCCNC(=N)N)NC1=O
β-Arrestin EC50: 4.5 nM

B4: cyclo(-Ile-^DArg-Arg-Trp-^DTic-Thr-) (peptide)
peptide: cyclo(I[dR]RW[dTic]T)
SMILES: CC[C@H](C)[C@@H]1NC(=O)[C@H]([C@@H](C)O)NC(=O)[C@H]2Cc3ccccc3CN2C(=O)[C@H](Cc2c[nH]c3ccccc23)NC(=O)[C@H](CCCNC(=N)N)NC(=O)[C@@H](CCCNC(=N)N)NC1=O
β-Arrestin EC50: 14.2 nM

B6: cyclo(-Ile-^DThr-Arg-Trp-^DPro-Thr-) (peptide)
peptide: cyclo(I[dT]RW[dP]T)
SMILES: CC[C@H](C)[C@@H]1NC(=O)[C@H]([C@@H](C)O)NC(=O)[C@H]2CCCN2C(=O)[C@H](Cc2c[nH]c3ccccc23)NC(=O)[C@H](CCCNC(=N)N)NC(=O)[C@@H]([C@H](C)O)NC1=O
β-Arrestin EC50: 53.2 nM

B8: cyclo(-Trp-^DPhe-Trp-Orn(Ar7)-^DPro((4R)NH2)-Tic-) (peptide)
peptide: cyclo(W[dF]W[Orn](Ar7)[dPro(cis-4-NH2)][Tic])
modifications: reading uncertain; also: printed as cyclo(-Trp-^DPhe-Trp-Orn(Ar7)-^DPro((4R)NH2)-Tic-)
β-Arrestin EC50: 145 nM

Binder: cyclo([Ala(Tet)][dF]WR[dPro(cis-4-NH2)][Tic]) [cyclo(-Ala(Tet)-^DPhe-Trp-Arg-^DPro((4R)NH2)-Tic-)]
β-Arrestin EC50: 28.1 nM

B13: cyclo(-Ile-^DArg-Orn-Trp-^DPro-Thr-) (peptide)
peptide: cyclo(I[dR][Orn]W[dP]T)
SMILES: CC[C@H](C)[C@@H]1NC(=O)[C@H]([C@@H](C)O)NC(=O)[C@H]2CCCN2C(=O)[C@H](Cc2c[nH]c3ccccc23)NC(=O)[C@H](CCCN)NC(=O)[C@@H](CCCNC(=N)N)NC1=O
β-Arrestin EC50: 816 nM
